Reference: patent US20250114450A1 (AKESO BIOPHARMA, published 2025)

Biological target: T1, FcγRI (UniProt P12314 16-288, limits assumed)
T1 construct: construct not described; also called CD64; FcγRIa
Test: BLI (Fortebio Octet), FcγRI immobilized on HIS1K sensor, antibody 3.12-50 nM, 1:1 fit
Procedure: 1 μg/mL FcγRIa was immobilized on the HIS1K sensor for 50 s. The sensor was equilibrated in a buffer for 60 s, and the binding of the immobilized CD64 on the sensor to the antibodies at concentrations of 3.12-50 nM (two-fold dilution) was determined for 120 s. The antibody was dissociated in the buffer for 120 s. The sensor was refreshed 4 times in 10 mM glycine pH 1.5, each for 5 s. The detection temperature was 30° C. and the frequency was 0.3 Hz. The data were analyzed by 1:1 model fitting to obtain affinity constants.

T1 sequence (P12314 16-288 limits assumed): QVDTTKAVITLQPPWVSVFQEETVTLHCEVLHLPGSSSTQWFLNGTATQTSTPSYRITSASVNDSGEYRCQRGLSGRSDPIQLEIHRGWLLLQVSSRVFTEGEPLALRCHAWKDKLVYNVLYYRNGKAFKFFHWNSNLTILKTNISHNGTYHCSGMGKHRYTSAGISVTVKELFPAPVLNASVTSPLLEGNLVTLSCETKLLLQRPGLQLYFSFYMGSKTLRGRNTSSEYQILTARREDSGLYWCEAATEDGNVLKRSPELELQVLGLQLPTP

- Kd: 3.68 nM
B1: Bevacizumab (antibody, human IgG1, kappa)
heavy: not shown
light: not shown
notes: also called Avastin; anti-VEGFA monoclonal antibody
